Tested on: DctD2 D57Q (d-DctD2 mimic) (Vibrio vulnificus)
Assay: EMSA
Conditions: EMSA: 50 mM Tris-HCl pH 8.0, 20 mM KCl, 50 mM MgCl2 (so in the source), 100 mM NaCl; approx. 50 nM 32P-labeled probe; 6% native PAGE; temperature not stated

EPS-II cluster regulatory region probe (480 bp)
binding: > 700 nM

Source: PMC9040800
